According to the RNAGym collection of RNA variant scans (doi:10.7554/elife.80360):

B1: HDV Ribozyme (parent)
chain: GGCCGGCAUGGUCCCAGCCUCCUCGCUGGCGCCGGCUGGGCAACAUUCCGAGGGGACCGUCCCCUCGGUAAUGGCGAAUGGGACCCA

Variants of: B1
Assay: self-cleavage, relative activity (ratio to wild type); higher = more cleavage; co-transcriptional

Row | Variant | self-cleavage
1 | GGCCGGCAUGGUCCCAGCCUCCUCGCUGGCGCCGGCUGGGGAACAUUCCGAGGGGACCGUCCCCUCGGUAAUGGCGAAUGGUACCCA [C41G G82U] | 0.157
2 | GGCCGGCAUGGUCCCAGCCUCCUCGCUGGCGCCGGCUGGGGAACAUUCCUAGGGGACCGUCCCCUCGGUAAUGGCGAAUGGGACCCA [C41G G50U] | 0.708
3 | GGCCGGCAUGGUCCCAGCCUCCUCGCUGGCGCCGGCUGGGGAACAUGCCGAGGGGACCGUCCCCUCGGUAAUGGCGAAUGGGACCCA [C41G U47G] | 0.598
4 | GGCCGGCAUGGUCCCAGCCUCCUCGCUGGCGCCGGCUGGGGAACAUCCCGAGGGGACCGUCCCCUCGGUAAUGGCGAAUGGGACCCA [C41G U47C] | 0.633
5 | GGCCGGCAUGGUCCCAGCCUCCUCGCUGGCGCCGGCUGGGGAACAUUCCGAGGGGACCGUCCCCUAGGUAAUGGCGAAUGGGACCCA [C41G C66A] | 0.96
6 | GGCCGGCAUGGUCCCAGCCUCCUCGCUGGCGCCGGCUGGGGAACAUUCCGAGGGGACCGUCCCCUGGGUAAUGGCGAAUGGGACCCA [C41G C66G] | 0.831
7 | GGCCGGCAUGGUCCCAGCCUCCUCGCUGGCGCCGGCUGGGGAACAUUCCGACGGGACCGUCCCCUCGGUAAUGGCGAAUGGGACCCA [C41G G52C] | 0.509
8 | GGCCGGCAUGGUCCCAGCCUCCUCGCUGGCGCCGGCUGGGGAACAUUCCGAGGGGACGGUCCCCUCGGUAAUGGCGAAUGGGACCCA [C41G C58G] | 0.974
9 | GGCCGGCAUGGUCCCAGCCUCCUCGCUGGCGCCGGCUGGGGAACAUUCAGAGGGGACCGUCCCCUCGGUAAUGGCGAAUGGGACCCA [C41G C49A] | 0.489
10 | GGCCGGCAUGGUCCCAGCCUCCUCGCUGGCGCCGGCUGGGGAACAUUCCGAGGGGACCGUCCCCUCGGUAAUGGCGAAGGGGACCCA [C41G U79G] | 0.302
11 | GGCCGGCAUGGUCCCAGCCUCCUCGCUGGCGCCGGCUGGGGAACAUUCCGAGGGGACCGUCCCCUCGGUAAUGGCGAACGGGACCCA [C41G U79C] | 0.35
12 | GGCCGGCAUGGUCCCAGCCUCCUCGCUGGCGCCGGCUGGGGAACAUUCCGAGGGGACCGUCCCCUCGGUAAUGGCGAAAGGGACCCA [C41G U79A] | 0.59
13 | GGCCGGCAUGGUCCCAGCCUCCUCGCUGGCGCCGGCUGGGGAACAUUCCGAGGGGACCCUCCCCUCGGUAAUGGCGAAUGGGACCCA [C41G G59C] | 0.919
14 | GGCCGGCAUGGUCCCAGCCUCCUCGCUGGCGCCGGCUGGGGAACAUUCCGAGGGGACCAUCCCCUCGGUAAUGGCGAAUGGGACCCA [C41G G59A] | 0.758
15 | GGCCGGCAUGGUCCCAGCCUCCUCGCUGGCGCCGGCUGGGGAACAUUCCGAGGGGACCGUCCGCUCGGUAAUGGCGAAUGGGACCCA [C41G C63G] | 0.517
16 | GGCCGGCAUGGUCCCAGCCUCCUCGCUGGCGCCGGCUGGGGAACAUUCCGAGGGGACCGUCCCCUCCGUAAUGGCGAAUGGGACCCA [C41G G67C] | 0.678
17 | GGCCGGCAUGGUCCCAGCCUCCUCGCUGGCGCCGGCUGGGGAACAUUCCGAGGGGACCGUCCCCUCUGUAAUGGCGAAUGGGACCCA [C41G G67U] | 0.48
18 | GGCCGGCAUGGUCCCAGCCUCCUCGCUGGCGCCGGCUGGGGAACAAUCCGAGGGGACCGUCCCCUCGGUAAUGGCGAAUGGGACCCA [C41G U46A] | 0.293
19 | GGCCGGCAUGGUCCCAGCCUCCUCGCUGGCGCCGGCUGGGGAACACUCCGAGGGGACCGUCCCCUCGGUAAUGGCGAAUGGGACCCA [C41G U46C] | 0.297
20 | GGCCGGCAUGGUCCCAGCCUCCUCGCUGGCGCCGGCUGGGGAACAUUCCGAGGGGACCGUCCCCUCGGUAAUGGCGAAUGGGAUCCA [C41G C84U] | 0.456
21 | GGCCGGCAUGGUCCCAGCCUCCUCGCUGGCGCCGGCUGGGGAACAUUCCGAGGGGACCGUCCCCUCGGUAAUGGCGAAUGGGAACCA [C41G C84A] | 0.508
22 | GGCCGGCAUGGUCCCAGCCUCCUCGCUGGCGCCGGCUGGGGAACAUUCCGAGGGGACCGUCCCCUCGGUAAUGGCGAAUGGGAGCCA [C41G C84G] | 0.665

Row | Variant | self-cleavage
23 | GGCCGGCAUGGUCCCAGCCUCCUCGCUGGCGCCGGCUGGGGAACAUUCCGAGGGGACCGUCCCCUCGGUAAUGGCGAAUGAGACCCA [C41G G81A] | 0.188
24 | GGCCGGCAUGGUCCCAGCCUCCUCGCUGGCGCCGGCUGGGGAACAUUCCGAGGGAACCGUCCCCUCGGUAAUGGCGAAUGGGACCCA [C41G G55A] | 0.911
25 | GGCCGGCAUGGUCCCAGCCUCCUCGCUGGCGCCGGCUGGGGAACAUUCCGAGGGUACCGUCCCCUCGGUAAUGGCGAAUGGGACCCA [C41G G55U] | 0.86
26 | GGCCGGCAUGGUCCCAGCCUCCUCGCUGGCGCCGGCUGGGGAACAUUCCGAGGGGACCGUCCCCUCGGUAAUGGCGAAUGGGACACA [C41G C85A] | 0.617
27 | GGCCGGCAUGGUCCCAGCCUCCUCGCUGGCGCCGGCUGGGGAACAUUCCGAGGGGACCGUCCCCUCGGUAAUGGGGAAUGGGACCCA [C41G C75G] | 0.219
28 | GGCCGGCAUGGUCCCAGCCUCCUCGCUGGCGCCGGCUGGGGAACAUUCCGAGGGGACCGUCCCCUCGGUAAUGGAGAAUGGGACCCA [C41G C75A] | 0.353
29 | GGCCGGCAUGGUCCCAGCCUCCUCGCUGGCGCCGGCUGGGGAACAUUCCGAGGGGACCGUCCCCUCGGUAAUGGUGAAUGGGACCCA [C41G C75U] | 0.095
30 | GGCCGGCAUGGUCCCAGCCUCCUCGCUGGCGCCGGCUGGGUAACAUUCCGAGGGGACCGUCCCCUCGGUAAUGGCGAAUGGGACCCA [C41U] | 0.979
31 | GGCCGGCAUGGUCCCAGCCUCCUCGCUGGCGCCGGCUGGGUGACAUUCCGAGGGGACCGUCCCCUCGGUAAUGGCGAAUGGGACCCA [C41U A42G] | 0.872
32 | GGCCGGCAUGGUCCCAGCCUCCUCGCUGGCGCCGGCUGGGUUACAUUCCGAGGGGACCGUCCCCUCGGUAAUGGCGAAUGGGACCCA [C41U A42U] | 0.831
33 | GGCCGGCAUGGUCCCAGCCUCCUCGCUGGCGCCGGCUGGGUCACAUUCCGAGGGGACCGUCCCCUCGGUAAUGGCGAAUGGGACCCA [C41U A42C] | 0.519
34 | GGCCGGCAUGGUCCCAGCCUCCUCGCUGGCGCCGGCUGGGGAACAUUCCGAGGGGACCGUCCCCUCGGUAAUGGCGAAUGGGACCGA [C41G C86G] | 0.914
35 | GGCCGGCAUGGUCCCAGCCUCCUCGCUGGCGCCGGCUGGGGAACAUUCCGAGGGGACCGUCCCCUCGGUAAUGGCGAAUGGGACCAA [C41G C86A] | 1.14
36 | GGCCGGCAUGGUCCCAGCCUCCUCGCUGGCGCCGGCUGGGGAACAUUCCGAGGGGACCGUCCCCUCGGUAAUGGCGAAUCGGACCCA [C41G G80C] | 0.164
37 | GGCCGGCAUGGUCCCAGCCUCCUCGCUGGCGCCGGCUGGGGAACAUUCCGAGGGGACCGUCCCCUCGGUAAUGGCGAAUAGGACCCA [C41G G80A] | 0.431
38 | GGCCGGCAUGGUCCCAGCCUCCUCGCUGGCGCCGGCUGGGGAACAUUCCGAGGGGACCGUCCCCUCGGUAAUGGCUAAUGGGACCCA [C41G G76U] | 0.989
39 | GGCCGGCAUGGUCCCAGCCUCCUCGCUGGCGCCGGCUGGGGAACAUUCCGAGGGGACCGUCCCCUCGGUAAUGGCCAAUGGGACCCA [C41G G76C] | 0.91
40 | GGCCGGCAUGGUCCCAGCCUCCUCGCUGGCGCCGGCUGGGGAACAUUCCGAGGGGACCGUCCCCUCGGUAAUGGCAAAUGGGACCCA [C41G G76A] | 0.991
41 | GGCCGGCAUGGUCCCAGCCUCCUCGCUGGCGCCGGCUGGGGAACAUUCCGAGGGGACCGUCCCUUCGGUAAUGGCGAAUGGGACCCA [C41G C64U] | 0.853
42 | GGCCGGCAUGGUCCCAGCCUCCUCGCUGGCGCCGGCUGGGGAACAUUCCGAGGGGACCGUCCCAUCGGUAAUGGCGAAUGGGACCCA [C41G C64A] | 0.853
43 | GGCCGGCAUGGUCCCAGCCUCCUCGCUGGCGCCGGCUGGGGAACAUUCCGAGGGGACCGUCCCCUCGGGAAUGGCGAAUGGGACCCA [C41G U69G] | 0.755
44 | GGCCGGCAUGGUCCCAGCCUCCUCGCUGGCGCCGGCUGGGGAACAUUCCGAGGGGACCGUCGCCUCGGUAAUGGCGAAUGGGACCCA [C41G C62G] | 0.252

Row | Variant | self-cleavage
45 | GGCCGGCAUGGUCCCAGCCUCCUCGCUGGCGCCGGCUGGGGAACAUUCCGAGGGGACCGUGCCCUCGGUAAUGGCGAAUGGGACCCA [C41G C61G] | 0.875
46 | GGCCGGCAUGGUCCCAGCCUCCUCGCUGGCGCCGGCUGGGGAACAUUCCGAGGGGACCGUUCCCUCGGUAAUGGCGAAUGGGACCCA [C41G C61U] | 0.886
47 | GGCCGGCAUGGUCCCAGCCUCCUCGCUGGCGCCGGCUGGGGAACAUUCCGAGUGGACCGUCCCCUCGGUAAUGGCGAAUGGGACCCA [C41G G53U] | 0.53
48 | GGCCGGCAUGGUCCCAGCCUCCUCGCUGGCGCCGGCUGGGGAACAUUCCGAGCGGACCGUCCCCUCGGUAAUGGCGAAUGGGACCCA [C41G G53C] | 0.658
49 | GGCCGGCAUGGUCCCAGCCUCCUCGCUGGCGCCGGCUGGGUAUCAUUCCGAGGGGACCGUCCCCUCGGUAAUGGCGAAUGGGACCCA [C41U A43U] | 0.489
50 | GGCCGGCAUGGUCCCAGCCUCCUCGCUGGCGCCGGCUGGGUAGCAUUCCGAGGGGACCGUCCCCUCGGUAAUGGCGAAUGGGACCCA [C41U A43G] | 0.356
51 | GGCCGGCAUGGUCCCAGCCUCCUCGCUGGCGCCGGCUGGGUACCAUUCCGAGGGGACCGUCCCCUCGGUAAUGGCGAAUGGGACCCA [C41U A43C] | 0.831
52 | GGCCGGCAUGGUCCCAGCCUCCUCGCUGGCGCCGGCUGGGUAACCUUCCGAGGGGACCGUCCCCUCGGUAAUGGCGAAUGGGACCCA [C41U A45C] | 0.569
53 | GGCCGGCAUGGUCCCAGCCUCCUCGCUGGCGCCGGCUGGGGAACAUUCCGAGGGGACCGUCCCCUCGGUAAUGACGAAUGGGACCCA [C41G G74A] | 0.486
54 | GGCCGGCAUGGUCCCAGCCUCCUCGCUGGCGCCGGCUGGGGAACAUUCCGAGGGGACCGUCCCCUCGGUAAUGCCGAAUGGGACCCA [C41G G74C] | 0.119
55 | GGCCGGCAUGGUCCCAGCCUCCUCGCUGGCGCCGGCUGGGGAACAUUCCGAGGGGACCGUCCCCUCGGUAAUGUCGAAUGGGACCCA [C41G G74U] | 0.47
56 | GGCCGGCAUGGUCCCAGCCUCCUCGCUGGCGCCGGCUGGGGAACAUUCCGAGGGGACCGGCCCCUCGGUAAUGGCGAAUGGGACCCA [C41G U60G] | 0.72
57 | GGCCGGCAUGGUCCCAGCCUCCUCGCUGGCGCCGGCUGGGGAACAUUCCGAGGGGACCGCCCCCUCGGUAAUGGCGAAUGGGACCCA [C41G U60C] | 0.997
58 | GGCCGGCAUGGUCCCAGCCUCCUCGCUGGCGCCGGCUGGGGAACAUUCCGAGGGGAUCGUCCCCUCGGUAAUGGCGAAUGGGACCCA [C41G C57U] | 1.04
59 | GGCCGGCAUGGUCCCAGCCUCCUCGCUGGCGCCGGCUGGGGAACAUUCCGAGGGGAACGUCCCCUCGGUAAUGGCGAAUGGGACCCA [C41G C57A] | 1.05
60 | GGCCGGCAUGGUCCCAGCCUCCUCGCUGGCGCCGGCUGGGGAACAUUCCGAGGAGACCGUCCCCUCGGUAAUGGCGAAUGGGACCCA [C41G G54A] | 0.831
61 | GGCCGGCAUGGUCCCAGCCUCCUCGCUGGCGCCGGCUGGGGAACAUUCCGAGGGGACCGUCCCCACGGUAAUGGCGAAUGGGACCCA [C41G U65A] | 0.987
62 | GGCCGGCAUGGUCCCAGCCUCCUCGCUGGCGCCGGCUGGGGAACAUUCCGAGGGGACCGUCCCCGCGGUAAUGGCGAAUGGGACCCA [C41G U65G] | 0.692
63 | GGCCGGCAUGGUCCCAGCCUCCUCGCUGGCGCCGGCUGGGGAACAUUGCGAGGGGACCGUCCCCUCGGUAAUGGCGAAUGGGACCCA [C41G C48G] | 0.682
64 | GGCCGGCAUGGUCCCAGCCUCCUCGCUGGCGCCGGCUGGGGAACAUUUCGAGGGGACCGUCCCCUCGGUAAUGGCGAAUGGGACCCA [C41G C48U] | 0.649
